Data from the supplement of paper PMC10567573.

B1: TMEM106C (parent)
chain: TVPEILVHNIVIFMRTSVKISYIG
B2: BEX1 (parent)
chain: EENMERIGEEVRQLMEKLREKQLS

Variants of: B1
Test: protein stability index of a GFP-peptide fusion (GPS, HEK-293T) (PSI 1-6); higher = more stable
Details: c terminus: a fixed tail appended
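Note: lentivirally expressed fusions sorted by FACS into six bins by GFP to DsRed ratio, PSI derived from sequencing read proportions per bin multiplied by bin number.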

Row | Variant | protein stability index
1 | I20P | 3.39
2 | I20G | 3.25
3 | I20T | 3.24
4 | I20R | 2.13
5 | I20Y | 3.86
6 | I20W | 2.88
7 | I20K | 3.3
8 | I20V | 1.4
9 | I20Q | 4.14
10 | I20A | 2.52
11 | I20L | 3.56
12 | I20N | 1
13 | I20C | 3.79
14 | I20S | 3.33
15 | I20H | 4.04
16 | I20E | 3.72
17 | I20D | 3.71
18 | I20F | 3.1
19 | I12E | 3.69
20 | I12V | 2.64
21 | I12D | 3.93
22 | I12K | 2.81
23 | I12T | 2.07
24 | I12N | 3.08
25 | I12C | 2.8

Row | Variant | protein stability index
26 | I12W | 2.08
27 | I12P | 2.19
28 | I12F | 2.8
29 | I12R | 3.25
30 | I12Y | 3.05
31 | I12S | 2.88
32 | I12L | 3.84
33 | I12G | 3.97
34 | I12M | 2.29
35 | I12Q | 2.11
36 | I12H | 3.33
37 | G24K | 2.98
38 | G24D | 2.27
39 | G24M | 3.57
40 | G24H | 2.84
41 | G24Y | 2.61
42 | G24R | 3.06
43 | G24V | 2.95
44 | G24F | 3.89
45 | G24C | 2.8
46 | G24A | 2.22
47 | G24S | 3.61
48 | G24W | 2.75
49 | G24L | 2.82
50 | G24E | 3.36

Row | Variant | protein stability index
51 | G24I | 3.38
52 | G24T | 2.06
53 | G24N | 3.8
54 | M14S | 4.03
55 | M14D | 3.11
56 | M14N | 3.25
57 | M14R | 2.21
58 | M14P | 3.45
59 | M14I | 2.85
60 | M14H | 2.91
61 | M14Q | 3.58
62 | M14V | 2.68
63 | M14F | 2.97
64 | M14C | 2.99
65 | M14G | 3.13
66 | M14E | 3.79
67 | M14K | 3.19
68 | M14A | 3.73
69 | M14W | 2.87
70 | M14Y | 2.6
71 | M14L | 3.05
72 | K19A | 3.17
73 | K19N | 3.38
74 | K19F | 3.24
75 | K19E | 4.38

Row | Variant | protein stability index
76 | K19G | 2.77
77 | K19P | 2.88
78 | K19M | 1.77
79 | K19Y | 3.12
80 | K19I | 3.18
81 | K19D | 3.61
82 | K19H | 2.62
83 | K19C | 4.43
84 | K19Q | 3.02
85 | K19S | 3.4
86 | K19L | 3.2
87 | S21E | 3.24
88 | S21Q | 2.04
89 | S21L | 3.4
90 | S21G | 1.99
91 | S21D | 2.53
92 | S21M | 3.51
93 | S21T | 3.42
94 | S21H | 2.81
95 | S21F | 3.13
96 | S21C | 2.77
97 | S21W | 1.95
98 | S21I | 3.51
99 | S21K | 2.53
100 | I10V | 2.92

Row | Variant | protein stability index
101 | I10E | 3.64
102 | I10R | 2.42
103 | I10K | 4.3
104 | I10D | 2.47
105 | I10W | 3.61
106 | I10H | 3.4
107 | I10M | 3.31
108 | I10Q | 2.94
109 | I10C | 2.67
110 | I10N | 2.65
111 | I10P | 2.49
112 | I10G | 4.19
113 | I10F | 3.5
114 | I10Y | 2.71
115 | I10T | 2.67
116 | V18N | 3.44
117 | V18P | 2.92
118 | V18D | 2.15
119 | V18F | 2.33
120 | V18A | 4.48
121 | V18M | 3.05
122 | V18E | 2.77
123 | V18K | 2.77
124 | V18G | 2.88
125 | V18H | 2.13

Row | Variant | protein stability index
126 | V18Y | 4.01
127 | V18S | 3.02
128 | V18L | 4.24
129 | V18T | 3.66
130 | V18W | 2.45
131 | V18Q | 3.31
132 | T16L | 3.11
133 | T16N | 2.98
134 | T16I | 1.93
135 | T16E | 2.54
136 | T16F | 3.06
137 | T16W | 2.85
138 | T16A | 1.5
139 | T16Q | 2.46
140 | T16D | 2.97
141 | T16Y | 3.88
142 | T16S | 2.54
143 | T16R | 2.5
144 | R15G | 3.23
145 | R15P | 2.47
146 | R15M | 3.77
147 | R15A | 2.33
148 | R15Q | 2.73
149 | R15H | 2.94
150 | R15V | 3.67

Row | Variant | protein stability index
151 | R15K | 3.46
152 | R15S | 3.18
153 | R15I | 4.22
154 | R15T | 2.69
155 | R15C | 2.91
156 | R15E | 1.63
157 | R15F | 3.57
158 | R15L | 3.26
159 | R15D | 2.57
160 | R15N | 3.2
161 | V11P | 2.92
162 | V11E | 3.64
163 | V11Q | 1.83
164 | V11H | 3.13
165 | V11R | 2.22
166 | V11T | 3.11
167 | V11A | 4.26
168 | V11D | 2.52
169 | V11C | 3.91
170 | V11N | 2.86
171 | V11Y | 2.44
172 | V11F | 4.1
173 | V11S | 3.97
174 | V11W | 2.85
175 | V11L | 1.78

Row | Variant | protein stability index
176 | V11G | 3.12
177 | V11M | 2.77
178 | I23K | 4.25
179 | I23F | 3.86
180 | I23Y | 3.25
181 | I23N | 3.26
182 | I23H | 1.77
183 | I23A | 3.15
184 | I23M | 3.06
185 | I23S | 3.05
186 | I23G | 2.88
187 | I23C | 2.41
188 | I23W | 3.22
189 | I23P | 3.49
190 | I23D | 3.85
191 | I23T | 3.01
192 | I23V | 2.4
193 | I23Q | 4.15
194 | I23R | 2.81
195 | S17M | 2.69
196 | S17H | 2.76
197 | S17K | 4.27
198 | S17W | 3.7
199 | S17I | 2.2
200 | S17L | 2.29

Row | Variant | protein stability index
201 | S17C | 3.88
202 | S17Y | 3
203 | S17F | 4.33
204 | S17G | 2.1
205 | S17D | 2.48
206 | S17N | 3.88
207 | S17Q | 3.81
208 | S17R | 3.66
209 | S17E | 3.3
210 | S17A | 4.19
211 | S17T | 3.17
212 | F13P | 3.22
213 | F13V | 3.33
214 | F13T | 2.99
215 | F13A | 3.07
216 | F13C | 3.25
217 | F13N | 3.17
218 | F13Q | 2.96
219 | F13G | 3.8
220 | F13K | 3.49
221 | F13S | 2.83
222 | F13D | 2.85
223 | F13M | 2.42
224 | F13E | 2.27
225 | F13L | 4.27

Row | Variant | protein stability index
226 | F13R | 2.3
227 | F13H | 2.11
228 | F13Y | 3.23
229 | Y22W | 2.65
230 | Y22A | 3.58
231 | Y22T | 2.84
232 | Y22N | 3.33
233 | Y22L | 2.73
234 | Y22F | 2.35
235 | Y22V | 4.14
236 | Y22H | 2.67
237 | Y22D | 2.46
238 | Y22C | 2.5
239 | Y22P | 3
240 | Y22S | 2.31
241 | Y22Q | 3.85
242 | Y22G | 2.47
243 | Y22K | 2.86
244 | Y22M | 3.99
245 | Y22I | 4.35
246 | Y22R | 3.04

Variants of: B2
Test: as above
Details: c terminus: a fixed tail appended

Row | Variant | protein stability index
247 | G8C | 4.73
248 | G8A | 3.25
249 | R6Q | 4.04
250 | R6I | 3.92
251 | R6Y | 4.57
252 | R6W | 4.69
253 | R6K | 4.8
254 | R6E | 5.71
255 | R6N | 3.84
256 | R6G | 5.28
257 | R6F | 3.72
258 | R6C | 4.25
259 | R6V | 4.81
260 | R6H | 5.43
261 | R6P | 5.03
262 | R6A | 4.94
263 | R6T | 4.85
264 | E5V | 3.3
265 | E5R | 4.33
266 | E5F | 4.54
267 | E5C | 3.74
268 | E5Q | 4.01

Row | Variant | protein stability index
269 | E5P | 4.77
270 | E5N | 4.96
271 | E5A | 4.28
272 | E5W | 3.31
273 | E5L | 3.89
274 | E2W | 4.53
275 | E2Y | 3.72
276 | E2K | 3.64
277 | E2R | 4.55
278 | E2I | 4
279 | E2D | 4.48
280 | E2A | 2.97
281 | E2H | 4.37
282 | E2F | 4.46
283 | E2S | 4.23
284 | E2M | 4.05
285 | E2P | 4.34
286 | E2Q | 4.2
287 | E2C | 4.07
288 | N3C | 3.89
289 | N3D | 3.5
290 | N3G | 5.04

Row | Variant | protein stability index
291 | N3Q | 3.94
292 | N3W | 4.32
293 | N3P | 4.71
294 | N3T | 3.84
295 | N3A | 3.99
296 | N3F | 4.74
297 | N3R | 3.79
298 | M4D | 4.81
299 | M4P | 5.96
300 | M4Q | 3.58
301 | M4L | 4.16
302 | M4R | 4.75
303 | M4S | 5.45
304 | M4T | 5.03
305 | M4I | 4.28
306 | M4E | 5.3
307 | M4H | 5.09
308 | M4K | 5.35
309 | M4Y | 4.55
310 | M4G | 5.48
311 | E1L | 3.54
312 | E1I | 4.77

Row | Variant | protein stability index
313 | E1S | 4
314 | E1Q | 4.41
315 | E1N | 4.31
316 | E1T | 4.56
317 | E1D | 2.37
318 | E1F | 4.32
319 | E1K | 3.81
320 | E1Y | 4.14
321 | E1R | 3.55
322 | E1C | 4.29
323 | I7K | 4.23
324 | I7T | 5.18
325 | I7Q | 5.33
326 | I7M | 4.83
327 | I7L | 4.74
328 | I7F | 4.78
329 | I7H | 5.86
330 | I7Y | 4.92
331 | I7G | 4.97
332 | I7R | 5.16
333 | I7S | 5.17
334 | I7C | 4.87
